Experimental findings from US20170233703A1 are described below.

The target in experiment [1] is C-terminal dCas9 constituent split at residue 1153 fused to Suntag (Streptococcus pyogenes) (UniProt Q99ZW2).
The target in experiment [2] is IntC:dCas9C:VPR split at residue 713 (dCas9 from residue 714) (Streptococcus pyogenes) (UniProt Q99ZW2).
Experiment [3] concerns the target IntC:dCas9C-VRER:VPR split at residue 713 (two-output sensory switch, FIG. 27) (Streptococcus pyogenes) (UniProt Q99ZW2).
Experiment [4] concerns the target dCas9M:IntN containing the residues from 714 to 1153 (Streptococcus pyogenes) (UniProt Q99ZW2).
In experiment [5] the target is IntC:dCas9C:Suntag containing the residues from 1154 to 1368 (Streptococcus pyogenes) (UniProt Q99ZW2).

The substance “N-terminal dCas9 constituent split at residue 1153 (intein fusion not stated at the place of the experiment) (from UniProt Q99ZW2)” registered a TagBFP expression, three-input logic AND circuit (two split-dCas9 constituents and rapalog), HEK293 cells in experiment [1] of 140 fold.

On to “dCas9N:IntN split at residue 713 (from UniProt Q99ZW2)”, for which the EYFP expression, two-input two-output sensory switch set by shRNA-FF5 and shRNA-FF4 in experiment [2] was 20 fold. In experiment [3], this substance showed a mKate2 expression, two-input two-output sensory switch set by shRNA-FF5 and shRNA-FF4 of 20 fold.

In the case of “dCas9N containing dCas9 residues from 1 to 713, without intein fusion (from UniProt Q99ZW2)”, the TagBFP expression, three-input logic AND circuit of three split-dCas9 fragments, HEK293 cells in experiment [4] came to 110 fold. Consider “dCas9M:IntN containing the residues from 714 to 1153 (from UniProt Q99ZW2)”, for which, in experiment [5], the TagBFP expression, three-input logic AND circuit of three split-dCas9 fragments, HEK293 cells turned out to be 110 fold.
